Measurements: patent publication US20040028607A1

Biological target: monoacetylated histone H3 peptide …(AcK)APRKQL, acetylated on lysine-14
Assay: cell-based or functional assay

monoacetylated histone H3 peptide …(AcK)APRKQL, acetylated on lysine-14, sequence (peptide, as listed by the source): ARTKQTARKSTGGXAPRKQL

Substance | Km, deacetylation of acetylated H3 peptide, charcoal-binding assay | V/K, deacetylation of acetylated H3 peptide, charcoal-binding assay
recombinant human SIRT2 (6xHis-tagged, with factor Xa cleavage site, purified from E. coli) (from UniProt Q8IXJ6 1-389) (enzyme) | 54.2 µM | 3930 M⁻¹ s⁻¹
recombinant yeast Hst2p (from UniProt P53686 1-357) (enzyme) | 0.28 µM | 718000 M⁻¹ s⁻¹
